Assay in all cases: purified protein
Common to all, as to conditions: NADPH 0.1 mM, pH 7.4, 25 °C, 10 mM beta-mercaptoethanol

Substrate in data set [1]: O=Cc1ccccc1
It counts as biochemical, Echinochloa colona.

Substrate in data set [2]: O=Cc1ccccc1
In kind it is biochemical, Oryza sativa.

Substrate in data set [3]: O=Cc1ccccc1
It counts as biochemical, Zea mays.

As usually defined, the Km is the substrate concentration at which the rate is half of its maximum. In general, kcat refers to the number of substrate molecules converted per active site and unit of time at saturation.

B1: EcAKR4 (Echinochloa colona) (protein)
chain: MARHFVLNTGAKIPSVGLGTWQSDPGVVGDAVYAAVKAGYRHIDCARVYGNEKEIGLALKKLFEEGVVKREDLFITSKLWNDHHAPEDVPEALNESLKDLQLDYLDLYLIHWPFRVKKGTNTSPENFITPDIPATWGAMEKLYDAGKARAIGVSNFSSKKLGDLLAVARVPPAVDQVECHPGWQQTKLHNFCQSTGVHLSAYSPLGSPGTTWMNGNVLKEPVIISIAEKLGKTPAQVALRWNIQMGHSVLPKSTNEERIKQNLDVYDWSIPDDLLAKFSEIKQARLLRGNFIVNPQSVYKTHEELWDGEL
notes: full CDS from leaf cDNA in pET32a as printed (about 40 kD on gel), E. coli BL21, Ni-NTA
Turning to B1, in “purified protein [1]”, the Km stood at 870 ± 250 µM and the catalytic constant (kcat) came out at 0.7052 ± 0.0253 s⁻¹.

B2: OsAKR4-1 (Oryza sativa Japonica Group) (protein)
chain: MAKHFVLNTGAKIPSVGLGTWQSDPGVVGDAVYAAVKAGYRHIDCARMYKNENEVGIALKKLFEEGVVKREDLFITSKLWCDCHAPEDVPESLDKTLSDLQLEYLDLYLIHWPFRVKKGSGISNTEDYIPPDIPSTWGAMEKLYDSGKSRAIGVSNFSSKKLGDLLAVACVPPAVDQVECHPGWQQTKLHNFCQSTGVHLSAYSPLGSPGSTWMNSNVLKESVIISIAEKLGKTPAQVALHWNIQMGHSVLPKSVTEERIKQNIDVYDWSIPEDLLVKFSEIKQVRLLRGDVIVNPHSVYKTHEELWDGEI
notes: full CDS from leaf cDNA in pET32a (vector tag, about 50 kD), E. coli BL21, Ni-NTA
Consider B2, for which, in the data set “purified protein [2]”, the Km stood at 2476 ± 540 µM and the kcat is 0.676 ± 0.0363 s⁻¹.

B3: ZmAKR4 (Zea mays) (protein)
chain: MARHFVLNTGAKIPSVGLGTWQSDPGVVGNAVYAAVKAGYRHIDCARVYGNEKEIGLALKKLFEEGVVKREDLFITSKLWNDHHAPEDVPEALNDSLNDLQLEYLDLYLIHWPFRVKKGTNTSPENFVTPDFPATWGAMEKLYDAGKARAIGVSNFSSKKLGDLLAVARVPPAVDQVECHPGWQQTKLHSFCQSTGVHLTAYSPLGSPGTTWMNGNVLKEPIIISIAEKLGKTSAQVALRWNIQMGHSVLPKSTNEERIKQNLDVYDWSIPDDLLAKFSEIKQARLLRGNFIVNPESVYKTHEELWDGEL
notes: as for B2
Regarding B3, in the data set “purified protein [3]”, the Michaelis constant (Km) amounted to 1060 ± 290 µM and the kcat came to 0.7522 ± 0.0293 s⁻¹.

These data come from publication PMC9966811, “Comparison of Glyphosate-Degradation Ability of Aldo-Keto Reductase (AKR4) Proteins in Maize, Soybean and Rice” (International Journal of Molecular Sciences, 2023).
